Reference: the supplement of paper PMC10567573
± gives the standard deviation.

Assay: protein stability index of a GFP-peptide fusion (GPS, HEK-293T) (PSI 1-6); higher = more stable
[1] = treatment: DMSO, c terminus: a fixed tail appended
[2] = treatment: MLN4924 1 uM, 8 h, c terminus: a fixed tail appended
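Further: 24-mer peptide tiles fused after GFP, lentivirally expressed, FACS-sorted into six equal bins by GFP/DsRed ratio, decoded by Illumina sequencing, PSI is the read-weighted mean bin number.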

Row | Sequence | protein stability index [1] | protein stability index [2] | protein stability index (treatment: DMSO, c terminus: native) | protein stability index (treatment: MLN4924 1 uM, 8 h, c terminus: native)
1 | GSGPIQLWQFLLELLTDKSCQSFI [ETS1] | 1.88 ± 0.67 | 2.94 ± 1.2 |  | 
2 | PESLTKPDQVAPFTFLQPLPLSPG [ATF4] | 4.21 ± 0.3 | 4.2 ± 0.12 |  | 
3 | SPTGLSPYLRFGCLSCRLFYFKLT [CRY1] | 1.84 ± 0.27 | 2.14 ± 0.43 |  | 
4 | AWNSPFYNCGEESLQSCMHFQPNS [NANOGP8] | 2.41 ± 0.13 | 2.43 ± 0.41 |  | 
5 | KEEGTVNGASWHTVAGSLNDFSYL [CPXM2] | 3.35 ± 0.53 | 3.33 ± 0.34 |  | 
6 | LHSSILTCTLLLLYSLAPTMGAVV [MFSD9] | 3.36 ± 0.4 | 2.94 ± 0.24 |  | 
7 | AVLEYLYTGMFTSSPDLDDMKLII [RHOBTB2] | 2.68 ± 0.6 | 2.53 ± 0.3 |  | 
8 | AVVALTQDQPSEAATGGATLAQTI [HDAC6] | 4.27 ± 0.33 | 4.38 ± 0.24 |  | 
9 | IQDLCEMLGKYGSSLEFTELLTLV [CASP6] | 2.34 ± 0.34 | 2.15 ± 0.26 |  | 
10 | LLLCLKVDNHFNLLTTSPVFPHYI [TRIM43] | 3.03 ± 0.52 | 3.08 ± 0.64 |  | 
11 | ELPTRIHEEVYFEPSSSKDSDENS [MIA2] | 5.34 ± 0.14 | 4.79 ± 0.58 |  | 
12 | PECGLAKKPPEESTCFERPCFKWY [ADAMTSL2] | 3.4 ± 0.42 | 2.96 ± 0.34 |  | 
13 | SPRGPAPGEEKFENLEGVPSVCSE [ZNF263] | 5.41 ± 0.39 | 5.44 ± 0.29 |  | 
14 | GVTGWCTGFIFQKVGKLAATAVGG [FUNDC2] | 2.17 ± 0.048 | 2.48 ± 0.74 |  | 
15 | VYYIFERLCAPLFRNIKQEPFSAR [SOAT1] | 2.5 ± 0.71 | 2.61 ± 0.5 |  | 
16 | PKGSKGKEKDSPFKPKLYKGDRGL [RBBP5] | 3.86 ± 0.89 | 4.34 ± 0.46 |  | 
17 | EEREKEAAEQAERSQSSIVPEEEQ [SMARCE1] | 5.62 ± 0.36 | 5.57 ± 0.15 |  | 
18 | LLKFDNSYSLWRSKSVYYRVYYTR [ACBD3] | 2.41 ± 0.55 | 2.49 ± 0.54 |  | 
19 | SYYDPGRLICDFPFDGLLEERALL [VPS39] | 2.4 ± 0.34 | 2.68 ± 0.29 |  | 
20 | NFLLFDMTTHPLTNNNIKQRLIKK [GOLPH3] | 2.62 ± 0.22 | 2.81 ± 0.25 |  | 
21 | RIQIWFQNRRAKLKRSHRESQFLM [HESX1] | 2.43 ± 0.76 | 2.15 ± 0.67 |  | 
22 | CVPPSEFSEPSFITESYQTLHPIS [ETS1] | 2.98 ± 0.19 | 3.08 ± 0.16 |  | 

Row | Sequence | protein stability index [1] | protein stability index [2] | protein stability index (treatment: DMSO, c terminus: native) | protein stability index (treatment: MLN4924 1 uM, 8 h, c terminus: native)
23 | MGCLGVAKEDGKADTKKRHTPRGH [SMOC2] | 5.15 ± 0.17 | 5 ± 0.12 |  | 
24 | FEEFVHYLQDHEKKLRLVFKSLDK [SLC25A25] | 2.18 ± 0.27 | 2.51 ± 0.31 |  | 
25 | VERAQQVAVQEQEIARREKELEAR [FLOT1] | 5.27 ± 0.36 | 5.3 ± 0.18 |  | 
26 | HQRIPQSVRILGSLVAILLVFLIT [SLC29A1] | 2.1 ± 0.37 | 2.33 ± 0.25 |  | 
27 | TLVDESDLYNWEVAIFGPPNTLYE [UBE2R2] | 2.71 ± 0.17 | 2.81 ± 0.17 |  | 
28 | TLSFNMSDKYPIQDTELPKAEECD [EDARADD] | 4.55 ± 0.39 | 4.36 ± 0.31 |  | 
29 | TALVGLRQNLSKSWLDVQVSNTYV [TPD52L3] | 2.39 ± 0.96 | 2.19 ± 0.53 |  | 
30 | SQEREGLLIVKLEEDCAWSQELPP [ZNF263] | 3.72 ± 0.068 | 3.89 ± 0.18 |  | 
31 | TFLPYTFSLMVTFPDVPLGIFLFC [TMEM175] | 2.49 ± 0.14 | 2.98 ± 0.8 |  | 
32 | DWEIQEDSRLMCSSVQKALFEEED [CCDC3] | 5.34 ± 0.25 | 5.54 ± 0.36 |  | 
33 | AAALKCQLCEKAPKEATVMCEQCD [TRIM9] | 5.33 ± 0.22 | 5.4 ± 0.15 |  | 
34 | RGKLKKTEEELRRIQTQKEQAKEN [ZC2HC1C] | 5.31 ± 0.13 | 5.39 ± 0.13 |  | 
35 | YAKLAAVAVFFIMLIVYVRFWWL [SEC22B] |  |  | 2.52 ± 0.081 | 2.63 ± 0.075
36 | NLESKSTIGVEFATRSIQVDGKTI [RAB11A] | 4.33 ± 0.19 | 4.27 ± 0.35 |  | 
37 | GTSTLLVWVGVIRYLTFFHNYNIL [MCOLN1] | 3.35 ± 0.16 | 2.99 ± 0.2 |  | 
38 | DLAKLVDQQNPTLGETPENSNLEE [ZNF449] | 5.47 ± 0.16 | 5.32 ± 0.24 |  | 
39 | SDGGQKNKPREHIIDCGDIVWSLA [WSB1] | 3.07 ± 0.36 | 3.23 ± 0.21 |  | 
40 | KTTIPEEEEEEEEAAGVVVEEELF [LMNB1] | 5.55 ± 0.29 | 5.62 ± 0.2 |  | 
41 | KADTKGFCNISLFEDLPLQEPQSP [PLAGL1] | 4.46 ± 0.14 | 4.61 ± 0.12 |  | 
42 | KDSVMQQNLVYYRFHRARWGLEEE [P3H4] | 2.51 ± 0.28 | 2.43 ± 0.085 |  | 
43 | PEGNILRDRFKSFQRRNMIEPRER [NOP53] | 4.25 ± 0.31 | 4.29 ± 0.36 |  | 
44 | YVYKPVMNQTCCPQYTIRCRPLQF [ATE1] | 2.65 ± 0.64 | 2.3 ± 0.33 |  | 
